Numbering of substitutions follows the chain as printed.
B1: ADAM Metallopeptidase With Thrombospondin Type 1 Motif 13 (ADAMTS13) (protein)
chain: AAGGILHLELLVAVGPDVFQAHQEDTERYVLTNLNIGAELLRDPSLGAQFRVHLVKMVILTEPEGAPNITANLTSSLLSVCGWSQTINPEDDTDPGHADLVLYITRFDLELPDGNRQVRGVTQLGGACSPTWSCLITEDTGFDLGVTIAHEIGHSFGLEHDGAPGSGCGPSGHVMASDGAAPRAGLAWSPCSRRQLLSLLSAGRARCVWDPPRPQPGSAGHPPDAQPGLYYSANEQCRVAFGPKAVACTFAREHLDMCQALSCHTDPLDQSSCSRLLVPLLDGTECGVEKWCSKGRCRSLVELTPIAAVHGRWSSWGPRSPCSRSCGGGVVTRRRQCNNPRPAFGGRACVGADLQAEMCNTQACEKTQLEFMSQQCARTDGQPLRSSPGGASFYHWGAAVPHSQGDALCRHMCRAIGESFIMKRGDSFLDGTRCMPSGPREDGTLSLCVSGSCRTFGCDGRMDSQQVWDRCQVCGGDNSTCSPRKGSFTAGRAREYVTFLTVTPNLTSVYIANHRPLFTHLAVRIGGRYVVAGKMSISPNTTYPSLLEDGRVEYRVALTEDRLPRLEEIRIWGPLQEDADIQVYRRYGEEYGNLTRPDITFTYFQPKPRQAWVWAAVRGPCSVSCGAGLRWVNYSCLDQARKELVETVQCQGSQQPPAWPEACVLEPCPPYWAVGDFGPCSASCGGGLRERPVRCVEAQGSLLKTLPPARCRAGAQQPAVALETCNPQPCPARWEVSEPSSCTSAGGAGLALENETCVPGADGLEAPVTEGPGSVDEKLPAPEPCVGMSCPPGWGHLDATSAGEKAPSPWGSIRTGAQAAHVWTPAAGSCSVSCGRGLMELRFLCMDSALRVPVQEELCGLASKPGSRREVCQAVPCPARWQYKLAACSVSCGRGVVRRILYCARAHGEDDGEEILLDTQCQGLPRPEPQEACSLEPCPPRWKVMSLGPCSASCGLGTARRSVACVQLDQGQDVEVDEAACAALVRPEASVPCLIADCTYRWHVGTWMECSVSCGDGIQRRRDTCLGPQAQAPVPADFCQHLPKPVTVRGCWAGPCVGQGTPSLVPHEEAAAPGRTTATPAGASLEWSQARGLLFSPAPQPRRLLPGPQENSVQSSACGRQHLEPTGTIDMRGPGQADCAVAIGRPLGEVVTLRVLESSLNCSAGDMLLLWGRLTWRKMCRKLLDMTFSSKTNTLVVRQRCGRPGGGVLLRYGSQLAPETFYRECDMQLFGPWGEIVSPSLSPATSNAGGCRLFINVAPHARIAIHALATNMGAGTEGANASYILIRDTHSLRTTAFHGQQVLYWESESSQAEMEFSEGFLKAQASLRGQYWTLQSWVPEMQDPQSWKGKEGT
B2: Lib1_P1_A9_scFv (scFv, not shown: small tags and cut ends)
scFv: QVQLVQSGAEVKKPGASVKVSCKVSGDTLSSYGIHWVRQAPGKGLEWMGGSIPSFGTAIYAQKFQGRVTMTEDTSTDTAYMELSSLKSEDTAVYYCTSEGPWLPFFSFDYWGQGTLVTVSSSGGSTITSYNVYYTKLSSSGTDIQMTQSPSSVSASVGDRVTITCRASQGISRNLAWYQQKPGKAPKLLIYKASSLASGVPSRFSGSGSGTDFTLTISSLQPEDFANYYCQQSFSTPVTFGGGTKVEIK
notes: soluble scFv, VH-linker-VL, expressed in S. cerevisiae (applies to all 63 scFvs)
B3: 17561_Lib6_scFv (scFv, not shown: small tags and cut ends)
scFv: EVQLVQSGAEVKKPGASVKVSCKASGYTFTDLPISWVRQAPGQGLEWMGWINPYTGDTNYAQKLQGRGTMTTDPSTSTAYMELRSLRSDDTAVYYCARDGVILGYYYYYGMDVWGQGTTVTVSSSGGSTITSYNVYYTKLSSSGTESALTQPASVSGSPGQSITISCTGTDLGSKSVSWYQQHPGKAPKLMIYDNFNRPSGVSNRFSGSKSGNTASLTISGLQAEDEADYYCSSRTVSGTYVFGGGTKLTVL
B4: Lib1_P1_A9 OA (antibody, human IgG4 S228P, kappa, F234A L235A)
heavy: QVQLVQSGAEVKKPGASVKVSCKVSGDTLSSYGIHWVRQAPGKGLEWMGGSIPSFGTAIYAQKFQGRVTMTEDTSTDTAYMELSSLKSEDTAVYYCTSEGPWLPFFSFDYWGQGTLVTVSSASTKGPSVFPLAPCSRSTSESTAALGCLVKDYFPEPVTVSWNSGALTSGVHTFPAVLQSSGLYSLSSVVTVPSSSLGTKTYTCNVDHKPSNTKVDKRVESKYGPPCPPCPAPEAAGGPSVFLFPPKPKDTLMISRTPEVTCVVVDVSQEDPEVQFNWYVDGVEVHNAKTKPREEQFNSTYRVVSVLTVLHQDWLNGKEYKCKVSNKGLPSSIEKTISKAKGQPREPQVYTLPPSQEEMTKNQVSLSCAVKGFYPSDIAVEWESNGQPENNYKTTPPVLDSDGSFFLVSRLTVDKSRWQEGNVFSCSVMHEALHNHYTQKSLSLSLG
chain: ESKYGPPCPPCPAPEAAGGPSVFLFPPKPKDTLMISRTPEVTCVVVDVSQEDPEVQFNWYVDGVEVHNAKTKPREEQFNSTYRVVSVLTVLHQDWLNGKEYKCKVSNKGLPSSIEKTISKAKGQPREPQVYTLPPSQEEMTKNQVSLWCLVKGFYPSDIAVEWESNGQPENNYKTTPPVLDSDGSFFLYSRLTVDKSRWQEGNVFSCSVMHEALHNHYTQKSLSLSLG
light: DIQMTQSPSSVSASVGDRVTITCRASQGISRNLAWYQQKPGKAPKLLIYKASSLASGVPSRFSGSGSGTDFTLTISSLQPEDFANYYCQQSFSTPVTFGGGTKVEIKRTVAAPSVFIFPPSDEQLKSGTASVVCLLNNFYPREAKVQWKVDNALQSGNSQESVTEQDSKDSTYSLSSTLTLSKADYEKHKVYACEVTHQGLSSPVTKSFNRGEC
notes: also called monovalent (one-arm) Lib1_P1_A9
B5: Lib1_P1_A6 OA (antibody, human IgG4 S228P, kappa, F234A L235A)
heavy: QVQLVQSGAEVKKPGASVKVSCKVSGSTFSNYAIHWVRQAPGKGLEWMGGIVPLSGTAIYAQKFQGRVTMTEDTSTDTAYMELSSLKSEDTAVYYCARDQGESSGWYAIYYGMDVWGQGTTVTVSSASTKGPSVFPLAPCSRSTSESTAALGCLVKDYFPEPVTVSWNSGALTSGVHTFPAVLQSSGLYSLSSVVTVPSSSLGTKTYTCNVDHKPSNTKVDKRVESKYGPPCPPCPAPEAAGGPSVFLFPPKPKDTLMISRTPEVTCVVVDVSQEDPEVQFNWYVDGVEVHNAKTKPREEQFNSTYRVVSVLTVLHQDWLNGKEYKCKVSNKGLPSSIEKTISKAKGQPREPQVYTLPPSQEEMTKNQVSLSCAVKGFYPSDIAVEWESNGQPENNYKTTPPVLDSDGSFFLVSRLTVDKSRWQEGNVFSCSVMHEALHNHYTQKSLSLSLG
chain: B4 chain
light: DIQMTQSPSSVSASVGDRVTITCRASQGIGTWLAWYQQKPGKAPKLLIYGSSSRASGVPSRFSGSGSGTDFTLTISSLQPEDFANYYCQQSYGKPTFGGGTKVEIKRTVAAPSVFIFPPSDEQLKSGTASVVCLLNNFYPREAKVQWKVDNALQSGNSQESVTEQDSKDSTYSLSSTLTLSKADYEKHKVYACEVTHQGLSSPVTKSFNRGEC
notes: also called monovalent (one-arm) Lib1_P1_A6

Assays:
[1] = molecular target: human plasma-derived von Willebrand Factor (VWF)
[2] = molecular target: T1, biotinylated human VWF cysteine knot (CK) domain construct (human, biotin on the in vitro biotinylation tag (residue not stated); one N-glycan); experiment: SPR, scFv captured on anti-SV5, pH 7.4; apparent Kd
T1 construct: Disulfide-linked homodimer; also called biotinylated human VWF CK domain; human VWF CK domain construct
T1 chain: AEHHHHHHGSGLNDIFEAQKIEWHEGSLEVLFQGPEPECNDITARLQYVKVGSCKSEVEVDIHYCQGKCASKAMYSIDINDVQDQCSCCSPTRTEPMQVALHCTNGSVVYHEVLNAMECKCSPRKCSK

VWF in human plasma [3] = molecular target: T2, VWF in human plasma (human, UniProt P04275 764-2813); experiment: flow cytometry, FITC anti-VWF on platelets; human PRP (2 donors), 0.5 mg/ml ristocetin, 600 nM antibody; relative to the same plasma without antibody; receptor platelet gp1b
T2 construct: Endogenous VWF in donor plasma, not purified; multimeric; also called VWF in plasma; VWF in platelet rich plasma
Protocol: PRP was prepared by centrifuging the blood at 250 g for 15 min. […] Sample analysis was performed on a flow cytometer. Using forward (FSC) and sideward (SSC) scatter pattern, a gate was placed on the platelets.

VWF in human plasma [4] = molecular target: T2, VWF in human plasma; experiment: VWF:FVIIIB enzyme immunoassay; human plasma (5 donors) 17 h 37 °C with 600 nM antibody; FVIII bound to captured VWF relative to untreated plasma; ligand FVIII
VWF in human plasma [5] = molecular target: T2, VWF in human plasma; experiment: VWF:FVIIIB enzyme immunoassay; human plasma (5 donors) 17 h 37 °C with 200 nM antibody; FVIII bound to captured VWF relative to untreated plasma; ligand FVIII
[6] = molecular target: T3, His-StrepTagII-HRV3C-cyno VWF-CK-HA-tag (cynomolgus monkey); experiment: solution-phase equilibrium binding, free antibody by ELISA; apparent Kd; pH 5.5; mean ± SD, n=2
T3 construct: it begins with the VWF signal peptide, whose limits were marked only by underlining that is lost in the text, so it was not cut off; The CK domain forms disulfide-linked homodimers; also called recombinant cyno CK domain; Cyno CK
T3 chain: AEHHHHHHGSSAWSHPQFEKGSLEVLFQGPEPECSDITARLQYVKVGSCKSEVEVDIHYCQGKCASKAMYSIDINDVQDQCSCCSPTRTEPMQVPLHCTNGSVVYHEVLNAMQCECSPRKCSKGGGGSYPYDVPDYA
Protocol: (§1) Following incubation for 30 min at room temperature to establish equilibrium, unbound antibody was quantified by ELISA using the immobilized human CK domain for capture and HRP-conjugated goat anti-human IgG Fc antibody for detection.
(§2) Following a single wash of the plate with 200 μL of wash buffer (TBS containing 0.05% (v/v) Tween-20 and 5 mM CaCl₂), the plate was blocked by incubation with 200 μL blocking buffer (TBS containing 5 mM CaCl₂ and 1% (w/w) BSA) for 1 hour at room temperature. […] Incubation lasted 3 min and was followed by 5-min incubation with 100 μL HRP-conjugated goat anti-human IgG Fc antibody for detection (1 mg/mL stock diluted 1:20,000 in blocking buffer). Before and after addition of a detection antibody, the plate was washed 5 times with 200 μL wash buffer. A chromogenic horseradish peroxidase (HRP) substrate (100 μL) was then added and following color development for 3 min, 100 μL ELISA stop solution were added to quench the reaction. Absorbance was measured at 450 nm with subtraction of the absorbance at 620 nm.
(§3) The standard curve prepared with free antibody was fitted to a Sigmoidal four-parameter logistic (4PL) model.

[7] = molecular target: T4, His-StrepTagII-HRV3C-human VWF-CK-HA-tag (human); experiment: as above
T4 construct: it begins with the VWF signal peptide, whose limits were marked only by underlining that is lost in the text, so it was not cut off; The CK domain forms disulfide-linked homodimers (CK dimer); also called recombinant human CK domain; Human CK
T4 chain: T3 chain with S35N, P95A, Q113E, E115K
Protocol: as §1, §2, §3

VWF in human plasma [8] = molecular target: T2, VWF in human plasma; experiment: collagen type III binding ELISA; human plasma (5 donors) 17 h 37 °C with 600 nM antibody; VWF bound to collagen relative to untreated plasma; ligand collagen type III
Protocol: Following incubation, collagen binding was determined relative to untreated plasma.

[9] = molecular target: T3, His-StrepTagII-HRV3C-cyno VWF-CK-HA-tag; experiment: solution-phase equilibrium binding, free antibody by ELISA; apparent Kd; pH 7.4; mean ± SD, n=2
Protocol: as §1, §2, §3

human plasma-derived VWF = molecular target: T5, human plasma-derived VWF (human, UniProt P04275 764-2813); experiment: as above
T5 construct: multimeric; also called pd-VWF; Human VWF
Protocol: as §1, §2, §3

[10] = molecular target: T4, His-StrepTagII-HRV3C-human VWF-CK-HA-tag; experiment: as above
Protocol: as §1, §2, §3

Row | Binder | VWF multimer distribution (LMW/IMW/HMW) after ristocetin, in the presence of 600 nM Lib1_P1_A6 OA [1] | VWF multimer distribution (LMW/IMW/HMW) after ristocetin, in the presence of 600 nM Lib1_P1_A9 OA [1] | Kd [2] | Platelet binding (% control) (VWF in human plasma [3]) | VWF:FVIII level (% of control) (VWF in human plasma [4]) | VWF:FVIII level (% of control) (VWF in human plasma [5]) | Kd [6] | Kd [7] | Collagen binding (% control) (VWF in human plasma [8]) | Kd [9] | Kd (human plasma-derived VWF) | Kd [10]
1 | B1 | The same shift in VWF multimer pattern was observed when plasma was treated with ristocetin in the presence of 600 nM antibody including Lib1_P1_A9 and Lib1_P1_A6 | The same shift in VWF multimer pattern was observed when plasma was treated with ristocetin in the presence of 600 nM antibody including Lib1_P1_A9 and Lib1_P1_A6 |  |  |  |  |  |  |  |  |  | 
2 | B2 |  |  | 0.05 nM |  |  |  |  |  |  |  |  | 
3 | B3 |  |  | 10 nM |  |  |  |  |  |  |  |  | 
4 | B4 |  |  |  | 89.7 % control | 93.9 % of control | 91.1 % of control | 26.4 nM | 17.9 nM | 106 % control | 10.2 nM | 5.7 nM | 5.3 nM
5 | B5 |  |  |  | 69.2 % control | 88.6 % of control | 89.7 % of control | 13 nM | 8.2 nM | 103 % control | 3.4 nM | 2.7 nM | 2.7 nM

Source: patent US20250154283A1 (published 2025)
